According to patent publication US11325966:

Experiments:
Assay in all cases: cell-based or functional assay
[1] = molecular target: BG505 (T332N) N301A (HIV-1)
[2] = molecular target: JR-CSF N301A (HIV-1) (UniProt P20871)
[3] = molecular target: JR-CSF R327A (HIV-1) (UniProt P20871)
[4] = molecular target: JR-CSF N295A (HIV-1) (UniProt P20871)
[5] = molecular target: BG505 (T332N) (HIV-1)
[6] = molecular target: HIV-1 envelope (Env) of pseudovirus 6480.v4.c25 (HIV-1)
[7] = molecular target: HIV-1 envelope (Env) of pseudovirus Ce1176_A3 (HIV-1)
[8] = molecular target: HIV-1 envelope (Env) of pseudovirus 3301.v1.c24 (HIV-1)
[9] = molecular target: HIV-1 envelope (Env) of pseudovirus CNE5 (HIV-1)
[10] = molecular target: HIV-1 envelope (Env) of pseudovirus 3103.v3.c10 (HIV-1)
[11] = molecular target: HIV-1 envelope (Env) of pseudovirus C4118.c09 (HIV-1)
[12] = molecular target: HIV-1 envelope (Env) of pseudovirus Du156.12 (HIV-1)
[13] = molecular target: HIV-1 envelope (Env) of pseudovirus REJO4541.67 (HIV-1)
[14] = molecular target: HIV-1 envelope (Env) of pseudovirus THRO4156.18 (HIV-1)
[15] = molecular target: HIV-1 envelope (Env) of pseudovirus 928-28 (HIV-1)
[16] = molecular target: HIV-1 envelope (Env) of pseudovirus YU2_N160K (HIV-1) (UniProt P35961)
[17] = molecular target: HIV-1 envelope (Env) of pseudovirus X2088_c9 (HIV-1)
[18] = molecular target: HIV-1 envelope (Env) of pseudovirus Ce2010_F5 (HIV-1)
[19] = molecular target: HIV-1 envelope (Env) of pseudovirus T257-31 (HIV-1)
[20] = molecular target: HIV-1 envelope (Env) of pseudovirus 231966.c02 (HIV-1)
[21] = molecular target: HIV-1 envelope (Env) of pseudovirus CNE17 (HIV-1)
[22] = molecular target: HIV-1 envelope (Env) of pseudovirus CNE20 (HIV-1)
[23] = molecular target: HIV-1 envelope (Env) of pseudovirus T255-34 (HIV-1)
[24] = molecular target: HIV-1 envelope (Env) of pseudovirus 6952.v1.c20 (HIV-1)
[25] = molecular target: HIV-1 envelope (Env) of pseudovirus PVO.4 (HIV-1)
[26] = molecular target: HIV-1 envelope (Env) of pseudovirus 6545.v4.c1 (HIV-1)
[27] = molecular target: HIV-1 envelope (Env) of pseudovirus ZM233M.PB6 (HIV-1)
[28] = molecular target: HIV-1 envelope (Env) of pseudovirus AC10.0.29 (HIV-1)
[29] = molecular target: HIV-1 envelope (Env) of pseudovirus 62357_14_D3_4589 (HIV-1)
[30] = molecular target: HIV-1 envelope (Env) of pseudovirus YU2_N276D (HIV-1) (UniProt P35961)
[31] = molecular target: HIV-1 envelope (Env) of pseudovirus 7030102001E5 (Rev-) (HIV-1)
[32] = molecular target: HIV-1 envelope (Env) of pseudovirus X1193_c1 (HIV-1)
[33] = molecular target: HIV-1 envelope (Env) of pseudovirus 3817.v2.c59 (HIV-1)
[34] = molecular target: HIV-1 envelope (Env) of pseudovirus P0402_c2_11 (HIV-1)
[35] = molecular target: HIV-1 envelope (Env) of pseudovirus HIV-16845-2.22 (HIV-1)
[36] = molecular target: HIV-1 envelope (Env) of pseudovirus CNE8 (HIV-1)
[37] = molecular target: HIV-1 envelope (Env) of pseudovirus X1254_c3 (HIV-1)
[38] = molecular target: HIV-1 envelope (Env) of pseudovirus WITO4160.33 (HIV-1)
[39] = molecular target: HIV-1 YU2 Env N276D, on pseudovirus (HIV-1) (UniProt P35961)

Work on 354BG8 (antibody) yielded an IC50 in TZM-bl assay [1] of 0.004 µg/mL, an IC50 in TZM-bl assay [2] of 0.006 µg/mL and an IC50 in TZM-bl assay [3] of 0.005 µg/mL. For the same substance, the IC50 in TZM-bl assay [4] was 0.006 µg/mL and the IC50 in TZM-bl assay [5] was 0.007 µg/mL.

With BG1 (antibody) the IC50 in TZM-bl assay [6] was > 30 µg/mL, the IC80 in TZM-bl assay [6] was > 30 µg/mL and the IC50 in TZM-bl assay [7] was 0.031 µg/mL. The IC80 in TZM-bl assay [7] was 0.165 µg/mL, the IC50 in TZM-bl assay [8] was > 30 µg/mL and the IC80 in TZM-bl assay [8] was > 30 µg/mL. The IC50 in TZM-bl assay [9] was 0.351 µg/mL, the IC80 in TZM-bl assay [9] was 1.28 µg/mL and the IC50 in TZM-bl assay [10] was > 30 µg/mL. The IC80 in TZM-bl assay [10] was > 30 µg/mL, the IC50 in TZM-bl assay [11] was 22.8 µg/mL and the IC80 in TZM-bl assay [11] was > 30 µg/mL. The IC50 in TZM-bl assay [12] was 1.52 µg/mL, the IC80 in TZM-bl assay [12] was 6.03 µg/mL and the IC50 in TZM-bl assay [13] was 0.342 µg/mL. The IC80 in TZM-bl assay [13] was 1.66 µg/mL, the IC50 in TZM-bl assay [14] was > 30 µg/mL and the IC80 in TZM-bl assay [14] was > 30 µg/mL. For the same substance, the IC50 in TZM-bl assay [15] was > 30 µg/mL, the IC80 in TZM-bl assay [15] was > 30 µg/mL and the IC50 in TZM-bl assay [16] was > 30 µg/mL. The IC80 in TZM-bl assay [16] was > 30 µg/mL, the IC50 in TZM-bl assay [17] was > 30 µg/mL and the IC80 in TZM-bl assay [17] was > 30 µg/mL. For the same substance, the IC50 in TZM-bl assay [18] was > 30 µg/mL, the IC80 in TZM-bl assay [18] was > 30 µg/mL and the IC50 in TZM-bl assay [19] was > 30 µg/mL. For the same substance, the IC80 in TZM-bl assay [19] was > 30 µg/mL, the IC50 in TZM-bl assay [20] was > 30 µg/mL and the IC80 in TZM-bl assay [20] was > 30 µg/mL. The IC50 in TZM-bl assay [21] was > 30 µg/mL, the IC80 in TZM-bl assay [21] was > 30 µg/mL and the IC50 in TZM-bl assay [22] was 4.26 µg/mL. For the same substance, the IC80 in TZM-bl assay [22] was > 30 µg/mL, the IC50 in TZM-bl assay [23] was 11.6 µg/mL and the IC80 in TZM-bl assay [23] was > 30 µg/mL. For the same substance, the IC50 in TZM-bl assay [24] was > 30 µg/mL, the IC80 in TZM-bl assay [24] was > 30 µg/mL and the IC50 in TZM-bl assay [25] was > 30 µg/mL. The IC80 in TZM-bl assay [25] was > 30 µg/mL, the IC50 in TZM-bl assay [26] was > 30 µg/mL and the IC80 in TZM-bl assay [26] was > 30 µg/mL. The IC50 in TZM-bl assay [27] was > 30 µg/mL, the IC80 in TZM-bl assay [27] was > 30 µg/mL and the IC50 in TZM-bl assay [28] was 0.012 µg/mL. It also gave an IC80 in TZM-bl assay [28] of 0.043 µg/mL, an IC50 in TZM-bl assay [29] of 0.638 µg/mL and an IC80 in TZM-bl assay [29] of 2.89 µg/mL. The IC50 in TZM-bl assay [30] was 18.8 µg/mL, the IC80 in TZM-bl assay [30] was > 30 µg/mL and the IC50 in TZM-bl assay [31] was > 30 µg/mL. The IC80 in TZM-bl assay [31] was > 30 µg/mL, the IC50 in TZM-bl assay [32] was 0.138 µg/mL and the IC80 in TZM-bl assay [32] was 0.463 µg/mL. The IC50 in TZM-bl assay [33] was 11.1 µg/mL, the IC80 in TZM-bl assay [33] was > 30 µg/mL and the IC50 in TZM-bl assay [34] was > 30 µg/mL. The IC80 in TZM-bl assay [34] was > 30 µg/mL, the IC50 in TZM-bl assay [35] was > 30 µg/mL and the IC80 in TZM-bl assay [35] was > 30 µg/mL. The IC50 in TZM-bl assay [36] was > 30 µg/mL, the IC80 in TZM-bl assay [36] was > 30 µg/mL and the IC50 in TZM-bl assay [37] was 0.048 µg/mL. It also gave an IC80 in TZM-bl assay [37] of 0.086 µg/mL, an IC50 in TZM-bl assay [38] of 0.002 µg/mL and an IC80 in TZM-bl assay [38] of 0.014 µg/mL.

For BG18 IgG (354BG18) (antibody), the IC50 in TZM-bl assay [39] was 0.012 µg/mL and the IC80 in TZM-bl assay [39] was 0.036 µg/mL.
